# Results reported in US20250263469A1 (HOSPITAL FOR SICK CHILDREN, published 2025).
# Positions count from the first letter of the chain named.
# B1: mAb 178 (antibody, V domains shown)
# VH: QVQLVQSGAEVKKPGASVKVSCKASGYTFTDYHMHWVRQAPGQGLEWMGWINPNSGGTNYAQKFQGRVTMTRDTSTSTVYMELSSLRSEDTAVYYCARDISSWYEITKFDPWGQGTLVTVSS
# VL: EIVMTQSPATLSVSPGERATLSCKASQSVSGTYLAWYQQKPGQAPRLLIYGASTRATGIPARFSGSGSGTEFTLTISSLQSEDFAVYYCLQTHSYPPTFGQGTKVEIKR
# B2: mAb 108 (antibody, V domains shown)
# VH: QVQLVQSGAEVKKPGASVKVSCKASGYIFSRYAIHWVRQAPGQGLEWMGWMNPISGNTDYAPNFQGRVTMTRDTSTSTVYMELSSLRSEDTAVYYCAKDGSQLAYLVEYFQHWGQGTLVTVSS
# VL: DIQMTQSPSSLSASVGDRVTITCRASQVITNNLAWYQQKPGKAPKLLIYDASTLETGVPSRFSGSGSGTDFTLTISSLQPEDFATYYCQQSYTFPYTFGQGTKVEIKR
# B3: mAb 128 (antibody, V domains shown)
# VH: QVQLVQSGAEVKKPGASVKVSCKASGYTFTHYYMHWVRQAPGQGLEWMGIINPSSSSASYSQKFQGRVTMTRDTSTSTVYMELSSLRSEDTAVYYCARDGRYGSGSYPFDYWGQGTLVTVSS
# VL: DIQMTQSPSSLSASVGDRVTITCRASQNISRYLNWYQQKPGKAPKLLIYDASNLETGVPSRFSGSGSGTDFTLTISSLQPEDFATYYCQQANGFPPTFGQGTKLEIKR
# B4: mAb 160 (antibody, V domains shown)
# VH: QVQLVQSGAEVKKPGASVKVSCKASGYTFTGHDMHWVRQAPGQGLEWMGIINPSGGSTSYAQKFQGRVTMTRDTSTSTVYMELSSLRSEDTAVYYCARANSLRYYYGMDVWGQGTMVTVSS
# VL: DIQMTQSPSSLSASVGDRVTITCRASQSVSSWLAWYQQKPGKAPKLLIYAASSLQSGVPSRFSGSGSGTDFTLTISSLQPEDFATYYCQQGYTTPYTFGQGTKLEIKR
# B5: mAb 368 (antibody, V domains shown)
# VH: QVQLVQSGAEVKKPGSSVKVSCKASGYTFTSYDINWVRQAPGQGLEWMGAIMPMFGTANYAQKFQGRVTITADESTSTAYMELSSLRSEDTAVYYCARGSSGYYYGWGQGTLVTVSS
# VL: not shown
# B6: mAb 192 (antibody, V domains shown)
# VH: QVQLVQSGAEVKKPGSSVKVSCKASGGTFSSYAISWVRQAPGQGLEWMGWINPNSGGANYAQKFQGRVTITADESTSTAYMELSSLRSEDTAVYYCSTYYYDSSGYSTDYWGQGTLVTVSS
# VL: DIVMTQSPLSLPVTPGEPASISCRSSQSLLHSNGYNYLDWYLQKPGQSPQLLIYAASSLQSGVPDRFSGSGSGTDFTLKISRVEAEDVGVYYCMQALQTPYTFGQGTKLEIKR
# B7: mAb 158 (antibody, V domains shown)
# VH: QVQLVQSGAEVKKPGASVKVSCKASGYTFTGYYMHWVRQAPGQGLEWMGWINPLNGGTNFAPKFQGRVTMTRDTSTSTVYMELSSLRSEDTAVYYCARDPGGSYSNDAFDIWGQGTLVTVSS
# VL: B3 VL with N28S, T56S, G93S, P96L, Q100G, L104V, E105D
# B8: mAb 180 (antibody, V domains shown)
# VH: QVQLVQSGAEVKKPGSSVKVSCKASGYTFTSYAMHWVRQAPGQGLEWMGRISPRSGGTKYAQRFQGRVTITADESTSTAYMELSSLRSEDTAVYYCAREAVAGTHPQAGDFDLWGRGTLVTVSS
# VL: B6 VL with M94Q, A96Y, L97Y, Q98S, T99S
# B9: mAb 254 (antibody, V domains shown)
# VH: EVQLLESGGGLVQPGGSLRLSCAASGFTFSSSAMHWVRQAPGKGLEWVSAIGTGGDTYYADSVKGRFTISRDNSKNTLYLQMNSLRAEDTAVYYCAREGDGYNFYFDYWGQGTLVTVSS
# VL: DIQMTQSPSSLSASVGDRVTITCRASQGISSYLAWYQQKPGKAPKLLIYDASSLQIGVPSRFSGSGSGTDFTLTISSLQPEDFATYYCLQSYSTPPWTFGQGTKVEIKR
# B10: mAb 120 (antibody, V domains shown)
# VH: QVQLVQSGAEVKKPGASVKVSCKASGYTFTSYDINWVRQAPGQGLEWMGMIDPSGGSTSYAQKFQGRVTMTRDTSTSTVYMELSSLRSEDTAVYYCAKDFGGGTRYDYWYFDLWGRGTLVTVSS
# VL: EIVMTQSPATLSVSPGERATLSCRASQSVSSRYLAWYQQKPGQAPRLLIYGASTRATGIPARFSGSGSGTEFTLTISSLQSEDFAVYYCQQYYTTPRTFGQGTRLEIKR
# B11: mAb 64 (antibody, V domains shown)
# VH: EVQLLESGGGLVQPGGSLRLSCAASGFPFSQHGMHWVRQAPGKGLEWVSAIDRSGSYIYYADSVKGRFTISRDNSKNTLYLQMNSLRAEDTAVYYCARDTYGGKVTYFDYWGQGTLVTVSS
# VL: B2 VL with V28G, T30S, N31S, N32H, T53N, S91T, T93S, F94T, Y96W
# B12: mAb 56 (antibody, V domains shown)
# VH: QVQLVQSGAEVKKPGASVKVSCKASGYTFTSYGISWVRQAPGQGLEWMGWISAYNGNTNYAQKLQGRVTMTRDTSTSTVYMELSSLRSEDTAVYYCARDIGPIDYWGQGTLVTVSS
# VL: B3 VL with N28G, R31S, N34A, E55Q, T56S, G93S, P96S, L104V
# B13: mAb 349 (antibody, V domains shown)
# VH: EVQLLESGGGLVQPGGSLRLSCAASGFTFSNYGMHWVRQAPGKGLEWVSGISSAGSITNYADSVKGRFTISRDNSKNTLYLQMNSLRAEDTAVYYCAGNHAGTTVTSEYFQHWGQGTLVTVSS
# VL: B4 VL with V29I, A50D, A51T, S53N, Q55E, S56T, G91S, Y96W, K103R
# B14: mAb 82 (antibody, V domains shown)
# VH: QVQLVQSGAEVKKPGASVKVSCKASGGSFSTSAFYWVRQAPGQGLEWMGWINPYTGGTNYAQKFQGRVTMTRDTSTSTVYMELSSLRSEDTAVYYCARSRALYGSGSYFDYWGQGTLVTVSS
# VL: B3 VL with N28V, R31N, N34A, A91S, N92F, G93S, F94P, K103R
# B15: mAb 46 (antibody, V domains shown)
# VH: EVQLLESGGGLVQPGRSLRLSCAASGFTFSSYAMSWVRQAPGKGLEWVSTIYSGGSTYYADSVKGRFTISRDNSKNTLYLQMNSLRAEDTAVYYCARGDSRDAFDIWGQGTMVTVSS
# VL: B2 VL with V28S, T30S, N31S, N32W, T53N, T93S, F94T, Y96F, Q100P, E105D
# B16: mAb 324 (antibody, V domains shown)
# VH: QVQLVQSGAEVKKPGASVKVSCKASGGTFNNYGISWVRQAPGQGLEWMGWMNPNSGNTGYAQKFQGRVTMTRDTSTSTVYMELSSLRSEDTAVYYCARVGDYGDYIVSPFDLWGRGTLVTVSS
# VL: B3 VL with N28S, S30T, R31T, A91S, N92Y, G93S, F94T, L104V
# B17: mAb 236 (antibody, V domains shown)
# VH: QVQLVQSGAEVKKPGASVKVSCKASGGTFTSYGINWVRQAPGQGLEWMGWMNPNSGNTGYAQKFQGRVTMTRDTSTSTVYMELSSLRSEDTAVYYCASRGIQLLPRGMDVWGQGTTVTVSS
# VL: not shown
# B18: mAb 52 (antibody, V domains shown)
# VH: QVQLVQSGAEVKKPGSSVKVSCKASGYTFTSYGISWVRQAPGQGLEWMGGIIPMFGTTNYAQKFQGRVTITADKSTSTAYMELSSLRSEDTAVYYCARDRGDTIDYWGQGTLVTVSS
# VL: DIQMTQSPSSLSASVGDRVTITCRASQGISNNLNWYQQKPGKAPKLLIYAASSLESGVPSRFSGSGSGTDFTLTISSLQPEDFATYYCQQGNGFPLTFGPGTKVDIKR
# B19: 4A8 IgG (antibody, V domains shown)
# VH: EVQLVESGAEVKKPGASVKVSCKVSGYTLTELSMHWVRQAPGKGLEWMGGFDPEDGETMYAQKFQGRVTMTEDTSTDTAYMELSSLRSEDTAVYYCATSTAVAGTPDLFDYYYGMDVWGQGTTVTVSS
# VL: EIVMTQSPLSSPVTLGQPASISCRSSQSLVHSDGNTYLSWLQQRPGQPPRLLIYKISNRFSGVPDRFSGSGAGTDFTLKISRVEAEDVGVYYCTQATQFPYTFGQGTKVDIK
# Biological target: T1, SARS-CoV-2 Spike on pseudotyped virus (PsV) (SARS-CoV-2, UniProt P0DTC2 14-1273)
# Test: cell-based or functional assay
row,Binder,"IC50 SARS-CoV2 PsV, IgG [µg/mL]"
1,B1,> 50
2,B2,> 50
3,B3,> 50
4,B4,> 50
5,B5,> 50
6,B6,> 50
7,B7,> 50
8,B8,> 50
9,B9,> 50
10,B10,> 50
11,B11,> 50
12,B12,> 50
13,B13,> 50
14,B14,1.6
15,B15,2.1
16,B16,0.78
17,B17,0.057
18,B18,0.55

# Biological target: T1, SARS-CoV-2 Spike on pseudotyped virus …
# Test: cell-based or functional assay
# Remark: another data set of the same source
row,Binder,"Median IC50, SARS-CoV-2 PsV neutralization [µg/mL]"
1,B1,> 50
2,B2,> 50
3,B3,> 50
4,B4,> 50
5,B5,> 50
6,B6,> 50
7,B7,> 50
8,B8,> 50
9,B9,> 50
10,B10,> 50
11,B11,> 50
12,B12,> 50
13,B13,> 50
14,B14,1.6
15,B15,2.1
16,B16,0.78
17,B17,0.057
18,B18,0.61

# Biological target: T1, SARS-CoV-2 Spike on pseudotyped virus …
# Test: cell-based or functional assay
# Remark: another data set of the same source
row,Binder,"Median IC50, SARS-CoV-2 PsV neutralization"
1,B19,> 100 g/mL as printed (µg/mL meant)
